Consider 1 molecule from US20220251157A1 (MAYO FOUNDATION FOR MEDICAL EDUCATION AND RESEARCH, published 2022).

Positions of bridges follow the written chain, without caps; N, C: chain ends. No end group written: not given here.

The target of one experiment is T1, 12p9a (disulfide 1-9; also: displayed on phage).
T1 peptide: CHQTEKLTC
Briefly: phage display panning (Ph.D.-C7C) on immobilized antibody, bound phage eluted; 11x clones. The source says: (§1) A phage display system (Ph.D.-C7C Peptide Library Kit, New England Biolabs) was used to select 7-mer peptides in a cysteine loop for either hIgM12 or hIgM22. Briefly, a random peptide bacteriophage library was panned against immobilized antibody. Unbound bacteriophage was washed away, and bound bacteriophage was eluted, regrown and re-panned against the antibody. Multiple (three to seven) rounds of panning led to development of a peptide consensus sequence for each antibody. Two similar consensus sequences were identified for hIgM22, while one consensus sequence was identified for hIgM12 (Table 1).

A further experiment concerns the target T2, 12p4 (disulfide 1-9; also: displayed on phage).
T2 construct: one clone only
T2 peptide: CARNSTPPC
Briefly: phage display panning (Ph.D.-C7C) on immobilized antibody, bound phage eluted; 1x clone.
From the text: as §1

B1: B7-DC XAb (antibody)
light: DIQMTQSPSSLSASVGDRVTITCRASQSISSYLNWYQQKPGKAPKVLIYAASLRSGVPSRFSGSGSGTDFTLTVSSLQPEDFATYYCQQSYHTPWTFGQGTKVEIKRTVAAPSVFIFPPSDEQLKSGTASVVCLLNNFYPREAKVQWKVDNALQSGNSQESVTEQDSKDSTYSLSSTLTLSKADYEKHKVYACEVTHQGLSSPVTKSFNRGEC
heavy: QVQLQESGPGLLKPSETLSLTCTVSGGSVSLYYWSWIRQSPGKEPEWIGYIYSSGSTDYNPSLRSRVTISLDTSNNRFSLNLRSVTAADTAVYWCARSASIRGWFDPWGQGTLVTVSSGSASAPTLFPLVSCENSPSDTSSVAVGCLAQDFLPDSITFSWKYKNNSDISSTRGFPSVLRGGKYAATSQVLLPSKDVMQGTDEHVVCKVQHPNGNKEKNVPLPVIAELPPKVSVFVPPRDGFFGNPRKSKLICQATGFSPRQIQVSWLREGKQVGSGVTTDQVQAEAKESGPTTYKVTSTLTIKESDWLSQSMFTCRVDHRGLTFQQNASSMCVPDQDTAIRVFAIPPSFASIFLTKSTKLTCLVTDLTTYDSVTISWTRQNGEAVKTHTNISESHPNATFSAVGEASICEDDWNSGERFTCTVTHTDLPSPLKQTISRPKGVALHRPDVYLLPPAREQLNLRESATITCLVTGFSPADVFVQWMQRGQPLSPEKYVTSAPMPEPQAPGRYFAHSILTVSEEEWNTGETYTCVVAHEALPNRVTERTVDKSTGKPTLYNVSLVMSDTAGTCY
notes: Human monoclonal IgM from a Waldenstrom's macroglobulinemia patient; J chain not described; Used at 10 ug/ml; also called hIgM12; sHIgM12
On to B1, for which the binding result in the experiment with 12p9a and in the experiment with 12p4 was “binds” each time.
